Measured values reported in publication PMC12838833.

Target: Staphylococcus aureus DltA (D-alanine-D-alanyl carrier protein ligase) (Staphylococcus aureus) (UniProt Q2FZW6)
Sequence of UniProt Q2FZW6 (Q2FZW6 whole entry): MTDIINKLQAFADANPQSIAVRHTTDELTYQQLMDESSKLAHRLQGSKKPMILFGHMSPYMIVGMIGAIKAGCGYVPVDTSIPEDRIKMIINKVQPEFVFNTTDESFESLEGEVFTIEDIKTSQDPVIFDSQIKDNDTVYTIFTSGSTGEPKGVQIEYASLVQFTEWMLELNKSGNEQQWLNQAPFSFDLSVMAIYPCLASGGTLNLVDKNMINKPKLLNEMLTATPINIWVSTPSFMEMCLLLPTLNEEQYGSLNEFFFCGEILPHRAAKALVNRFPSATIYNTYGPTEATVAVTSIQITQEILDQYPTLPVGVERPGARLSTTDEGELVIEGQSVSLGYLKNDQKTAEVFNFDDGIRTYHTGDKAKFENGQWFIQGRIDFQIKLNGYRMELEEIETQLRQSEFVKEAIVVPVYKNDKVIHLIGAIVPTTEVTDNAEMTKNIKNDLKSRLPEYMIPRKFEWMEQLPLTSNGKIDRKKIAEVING

B1: Wild-type Staphylococcus aureus D-alanyl carrier protein DltC (natural protein)
chain: MEFREQVLNLLAEVAENDIVKENPDVEIFEEGIIDSFQTVGLLLEIQNKLDIEVSIMDFDRDEWATPNKIVEALEELR
modifications: 4'-phosphopantetheine (Ppant) on Ser36 (co-expressed with AcpS to produce Ppant-attached SaDltC)
Work on B1 yielded a SaDltA adenylation activity (pyrophosphate detection assay, initial rates; 5 uM SaDltA with 300 uM SaDltC, 37 °C), increase over SaDltA alone of 22.3 fold.
